{"source": "paper PMC7604486", "target": "mouse Rae1–Nup98^GLEBS complex (tags removed) (mouse) (UniProt Q8C570)", "test": "SEC"}
{"substance": "MHV-68 ORF10 (wild type, full-length, no tag) (natural protein)", "values": [{"measurement": "stoichiometry N", "result": 1}]}
